Assay results: the supplement of paper PMC10567573

B1: PLK2 (parent)
chain: MELLRTITYQPAASTKMCEQALGK
B2: NEK8 (parent)
chain: YTFGSNQHGQLGTNTRRGSRAPCK

Variants of: B1
Test: protein stability index of a GFP-peptide fusion (GPS, HEK-293T) (PSI 1-6); higher = more stable
Conditions: c terminus: a fixed tail appended
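Note: lentivirally expressed fusions sorted by FACS into six bins by GFP to DsRed ratio, PSI derived from sequencing read proportions per bin multiplied by bin number.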

Protein stability index of substitutions, site by site:
E2: A 1.79, D 2.75, C 1.93
M1: C 1.51, Q 3.84, H 3.67, A 2.18, E 4.07, I 2.03, K 3.84, F 2.04, P 4.09, R 3.04, V 2.23, T 3.74, L 2.37, Y 2.54, W 2.16, S 2.17, D 3.64, G 3.84, N 4.1

Variants of: B2
Test: as above
Conditions: c terminus: a fixed tail appended

Protein stability index of substitutions, site by site:
K24: Y 2.63, R 3.44, H 3.52, S 3.24, A 3.45, N 3.2, I 3.08, D 3.91, L 3.81, W 2.59, V 3.68, F 2.93, Q 3.79, C 2.72, M 2.94, G 4.29, P 4.09, E 3.77, T 3.43
Q10: P 4, K 3.41, E 4.33, D 4.45, S 3.58, F 3.33, W 1.52, N 3.83, Y 3.52, H 3.89, I 3.47, G 4.08, T 4.32, L 3.36, A 4.21, R 3.82, V 3.31, C 3.36, M 3.58
N14: Q 3.69, D 4.35, G 3.49, E 3.69, K 3.88, P 3.77, I 2.73, S 3.88, V 2.06, C 2.29, T 2.98, F 3.71, L 3.51, M 3.44, H 4.07, R 3.88, A 3.38, Y 3.63, W 3.21
A21: I 3.69, Q 3.89, D 4.11, P 3.69, V 3.84, C 2.94, R 3.53, S 3.84, G 3.7, E 4.32, T 4.3, L 3.54, M 3.5, F 3.54, H 3.79, Y 3.38, N 4.1, W 2.69, K 4.24
G18: F 2.85, N 3.81, R 3.95, Y 3.26, S 3.43, M 3.47, T 4.08, A 3.33, C 3.48, L 3.77, I 3.61, V 3.46, E 3.69, W 3.23, K 4.05, D 3.94, H 3.52, P 3.53, Q 3.27
G9: F 2.1, A 3.39, V 2.78, C 3.48, R 3.94, Q 3.94, L 3.19, N 3.98, Y 2.23, E 3.98, H 4.16, T 3.82, M 3.19, D 4.11, P 3.38, I 3.05, K 4.12, S 4.15, W 2.16
T13: L 3.58, C 3.13, I 3.15, E 4.37, H 4.35, P 4.45, S 4.3, F 3.31, D 4.44, K 3.79, M 3.72, V 3.67, A 4.44, Q 4.35, Y 3.62, G 4.43, W 3.22, N 4.06, R 4.11
R17: Q 4.02, M 3.88, A 3.46, H 3.94, D 3.84, S 3.81, V 3.66, G 4.09, F 3.18, N 3.97, P 3.75, Y 3.5, T 3.65, K 3.73, C 3.07, I 3.51, E 4.07, L 3.92
S19: Q 4.02, A 3.95, N 3.86, V 3.77, F 3.03, R 3.91, C 3.08, I 3.33, T 3.81, K 3.77, M 4.05, L 3.82, P 3.89, W 2.8, H 3.95, Y 3.52, D 4.18, G 3.91, E 3.72
R20: N 4.05, F 2.85, P 3.83, T 3.86, S 3.55, I 3.52, Y 3.07, C 3.33, D 3.81, K 4.38, L 3.53, Q 4.17, A 4.07, W 2.21, G 3.97, V 3.48, E 4.1, M 3.15, H 3.96
P22: I 3.94, W 3.51, K 3.82, R 3.82, N 4.22, A 3.82, E 3.88, S 3.96, Y 3.72, Q 3.73, V 3.99, T 3.95, D 4.13, M 3.44, C 3.84, H 3.53, L 3.4, G 4.3, F 3.66
C23: Q 4.18, Y 3.46, H 4.25, A 3.95, R 4, D 4.19, M 3.61, E 4.27, N 4.19, G 3.4, L 3.91, F 3.61, V 4.25, S 3.72, P 3.89, I 3.59, K 4.21, W 3.37, T 3.9
L11: R 4.65, I 3.93, S 4.94, Y 3.95, D 4.49, H 4.23, F 3.76, T 4.43, E 4.53, V 4.1, W 3.22, G 4.53, A 4.38, K 3.56, Q 4.49, N 4.3, P 4.22, M 4.01, C 4.02
T15: D 3.85, K 3.94, H 4.05, I 4.14, G 3.77, A 3.9, Q 4.25, S 4.28, F 3.56, Y 3.67, P 3.6, W 3.49, R 3.98, N 3.82, C 3.56, V 4.17, E 4.17, M 4.09, L 3.7
H8: R 3.92, S 3.77, T 3.87, V 4.01, Q 3.92, Y 3.36, N 3.99, W 2.36, P 3.97
G12: A 4.36, M 3.84, W 2.73, K 3.98, C 3.71, L 4.15, T 4.32, Y 3.83, Q 3.93, E 4.19, P 4.43, I 3.79, R 4.11, V 4.11, H 4.37, S 3.97, D 4.68, N 4.18, F 3.09
R16: P 3.94, N 4.02, E 3.63, M 3.63, Y 3.37, L 3.82, G 4.24, F 2.57, Q 3.97, I 3.56, S 3.85, A 3.81, D 4.05, W 1.8, V 3.99, C 3.36, T 4.21, H 4.25, K 3.67
